Measured values from patent publication US5889151A (priority 1989, dated 1999).

B1: Human gamma IFN: human gamma interferon, recognized by a different receptor (protein, UniProt P01579 24-161, looked up)
Interferon gamma: QDPYVKEAENLKKYFNAGHSDVADNGTLFLGILKNWKEESDRKIMQSQIVSFYFKLFKNFKDDQSIQKSVETIKEDMNVKFFNSNKKKRDDFEKLTNYSVTDLNVQRKAIHELIQVMAELSPAAKTGKRKRSQMLFRG

Assays:
[1] = tested on: rhinoviruses; details: clinical trials; cited from earlier work
[2] = tested on: coronavirus; details: infected with a coronavirus; 37% with placebo; cited from earlier work
[3] = tested on: mouse parental BTG cells; format: cell-based
[4] = tested on: transfected 10B H7 clone; format: cell-based, mouse
[5] = tested on: human Wish cells; format: cell-based

Row | Molecule | protection of volunteers infected with different rhinoviruses [1] | volunteers developing the symptoms of a cold [2] | Antiviral activities of interferon preparations tested on BTG [3] | antiviral activity (in words) [3] | Antiviral activities of interferon preparations tested on 10BH7 [4] | antiviral activity (in words) [4] | Antiviral activities of interferon preparations tested on WISH [5]
1 | alpha interferon | 100% | 6% |  |  |  |  | 
2 | B1 |  |  | < 1 × 10^3 units/ml | no antiviral activity | < 1 × 10^3 units/ml | no antiviral activity | 20 × 10^6 units/ml
